According to patent US6239106A, “Family of protease inhibitors, and other biologic active substances” (Clodica, S.A., priority 1994, dated 2001):
Substitutions are numbered along the chain they refer to. Read-outs that look alike come from different tables or passages of the source. Non-standard residues stand in square brackets, D forms with d. Residues, ends and D or L forms follow the SMILES beside them. No end group written: not given here. Abu = CC[C@H](N)C(=O)O

Assays:
[1] = target: T1, elastase (Boehringer, 1027891) (Sus scrofa, UniProt P00772); test: Elastase inhibition assay (chromogenic substrate SAAAP, 405 nm); type: biochemical; settings: for specific (elastase) activity: IU = quantity reducing hydrolysis of SAAAP with 1 μmol/min at pH 8.3 and 25° C.; for inhibition of elastase activity: SAAAP substrate, 25° C., 30 minutes
T1 construct: purchased Boehringer 1027891
Method: 2. Prior lyophilized base material underwent solubility tests after resuspension of the base material in 1) 0.1M Acetic Acid, 2) 50% Acetic Acid and 3) 0.1M Ammoniumbicarbonate and after centrifugation of the various suspensions, supernatants and pellets (after resuspension). Thereafter these were tested on the presence of protein by analytical sequence analysis (Edman degradation with automated sequenator Applied Biosystems, Model 477A) (Edman, 1956; Ilse & Edman, 1963), by applying protocolls, reagentia, chemicals and materials from Applied Biosystems (Warrington, UK and Foster City, Calif., USA) (Hewick, et al, 1981).It was investigated if biologic activity included anti-elastase as the described "auto-antibiotic effect" of A. hydrophila. Therefore, tests on inhibition of elastase activity were executed with dried samples of 20 μl of supernatant and resuspension of pellet of the base material on elastase (Boehringer) and SAAAP (Fluka) as chromogenic substrate, and 0.1 M Tris/HCl pH 8.2 as assay buffer. Based on the results obtained with the different solutions, and the inhibition of elastase, it was decided to use 0.1 M Hac as solution for the lyophilized base material and thereafter as eluens for gel filtration.
The principle of the assay resides in inhibition of elastase (Boehringer, 1027891) activity on the chromogenic substrate SAAAP (Fluka, nr. 85975) as measured at 405 nm spectophotometrically by monitoring release of the p-nitro-aniline group during substrate digestion.
Assay buffer: 0.1M Tris/HCl pH 8.2, 1M NaCl.
Elastase: 40 μg/ml in H2 O.
Substrate: 1.0 mM SAAAP in H2 O.
Glacial Acetic Acid 50%: diluted in H2 O.
Reaction in tubes (Eppendorf), containing 100 μl assay buffer, 50 μl sample elastase inhibitor, 50 μl elastase solution was started by addition of SAAAP (25 μl, 1 mM) and incubated at 25° C. for 30 minutes. Thereafter the reaction was stopped by addition of 25 μl 50% Glacial Acetic Acid. The Absorbance of released p-nitroaniline was read at 405 nm.
International units (IU) are defined as that quantity which reduces the enzymatic hydrolysis of SAAAP with 1 μmol/min at pH 8.3 and 25° C.

[2] = Method: Stability of the molecule was tested
a) by boiling it in water at 100° C. for 30 minutes.
b) by immersion in 50% acetic acid at room temperature during one night, and
c) by immersion in 0.1M HCl in the same conditions.
The samples were consequently assayed with the elastase inhibition assay, as were blancs without inhibitor.

[3] = tested on: Trypsin; test: Trypsin inhibition assay (BAPNA); type: biochemical; settings: for trypsin inhibition: BAPNA, 37° C.
Method: An assay was developed for determination of the activity of this Trypsin inhibitor. In analogy with the elastase inhibition assay the preparation of the solution was as follows:
Trypsin, Type II-S soybean trypsin inhibitor (Sigma T 9128) and BAPNA (Sigma B 3279). This was further optimized to: trypsin solution: 120 μg/ml; BAPNA solution 10 mM; Trypsin inhibitor 100 μg/ml and incubation at 37° C. All other details were equal with the elastase inhibition assay.
(§1) Elastase inhibitory activity of Fahsin was measured by inhibition of the release of the p-nitroanilide group from the synthetic substrate N-succinyl-(Ala) 3-p-nitroanilide (SAAAP) (Calbiochem), catalyzed by pancreatic elastase and human neutrophil elastase respectively. Chymotrypsin inhibition activity of Fahsin was measured by the use of the synthetic substrate S-2586 (Kabi Vitrum). […] of Fahsin was measured by the use of the synthetic substrate S-2238 (Kabi Vitrum). pepsin activity of Fahsin was measured by the use of a haemoglobin substrate. Trypsin inhibition activity was determined using the BAPNA assay. Plasmin inhibition activity of Fahsin was related with the Trypsin inhibition activity and measured by the use of the chromogenic substrate D-Val-Leusyl-Lys-pNA (Othodiagnostics).

[4] = target: trypsin
[5] = target: elastase (Boehringer, 1027891)
[6] = target: plasmin (Homo sapiens, UniProt P00747); test: Plasmin inhibition (chromogenic substrate D-Val-Leusyl-Lys-pNA); type: biochemical
Method: as §1

[7] = target: elastase (Boehringer, 1027891); remark: listed apart in the source

T1 sequence (P00772 27-266): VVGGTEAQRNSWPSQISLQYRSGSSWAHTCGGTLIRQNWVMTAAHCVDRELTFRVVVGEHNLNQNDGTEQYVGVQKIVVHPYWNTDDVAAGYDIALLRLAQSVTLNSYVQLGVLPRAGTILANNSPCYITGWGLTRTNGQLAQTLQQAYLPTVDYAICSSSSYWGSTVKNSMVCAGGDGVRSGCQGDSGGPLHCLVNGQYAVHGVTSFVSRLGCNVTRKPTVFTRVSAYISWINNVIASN
Chain of plasmin (P00747 581-810 limits assumed, species assumed): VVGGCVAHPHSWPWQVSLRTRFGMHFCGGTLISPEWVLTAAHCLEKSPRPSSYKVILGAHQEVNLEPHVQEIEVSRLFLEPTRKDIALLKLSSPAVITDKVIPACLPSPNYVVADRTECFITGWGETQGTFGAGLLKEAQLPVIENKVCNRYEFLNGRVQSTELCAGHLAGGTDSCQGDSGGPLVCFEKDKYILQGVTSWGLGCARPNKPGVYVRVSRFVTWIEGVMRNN
Chain of plasmin (P00747 97-580 partner limits assumed, species assumed): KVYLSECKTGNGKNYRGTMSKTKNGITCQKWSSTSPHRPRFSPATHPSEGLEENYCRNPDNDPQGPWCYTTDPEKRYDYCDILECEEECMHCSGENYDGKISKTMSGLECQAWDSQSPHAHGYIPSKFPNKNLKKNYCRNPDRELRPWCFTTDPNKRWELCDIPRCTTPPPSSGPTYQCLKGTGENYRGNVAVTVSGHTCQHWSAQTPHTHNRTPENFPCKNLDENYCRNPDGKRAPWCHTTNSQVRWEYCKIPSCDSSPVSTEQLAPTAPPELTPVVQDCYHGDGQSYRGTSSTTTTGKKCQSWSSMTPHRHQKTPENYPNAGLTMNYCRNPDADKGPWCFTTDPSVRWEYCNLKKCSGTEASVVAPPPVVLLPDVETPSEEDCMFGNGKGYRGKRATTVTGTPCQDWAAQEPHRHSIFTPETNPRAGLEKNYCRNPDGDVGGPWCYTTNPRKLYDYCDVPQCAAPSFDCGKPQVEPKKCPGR

Molecule: DDNCGGKVCSKGQLCHDGHCECTPIRCLIFCPNGFAVDENGCELPCSCKHQ (cysteine pairing not given here) [peak 8]
- specific (elastase) activity [1]: 1.7 IU/mg
- inhibition of elastase activity [1]: showed inhibition of elastase
- stability: elastase inhibiting activity after treatment ([2]; 0.1M HCl at room temperature during one night): no significant decrease of inhibiting activity
- stability: elastase inhibiting activity after treatment ([2]; 50% acetic acid at room temperature during one night): no significant decrease of inhibiting activity
- stability: elastase inhibiting activity after treatment ([2]; boiling in water at 100° C. for 30 minutes): no significant decrease of inhibiting activity

Molecule: CC[C@H](NC(=O)[C@H](CCCNC(=N)N)NC(=O)[C@@H](NC(=O)[C@@H]1CCCN1C(=O)[C@@H](NC(C)=O)[C@@H](C)O)[C@@H](C)CC)C(=O)N[C@@H](CC(C)C)C(=O)N[C@H](C(=O)N[C@@H](Cc1ccccc1)C(=O)N[C@@H](CC)C(=O)N1CCC[C@H]1C(=O)N[C@@H](CC(N)=O)C(=O)NCC(=O)N[C@@H](Cc1ccccc1)C(=O)N[C@@H](C)C(=O)N[C@H](C(=O)N[C@@H](CC(=O)O)C(N)=O)C(C)C)[C@@H](C)CC [Synthetic peptide I, N-Acetyl-TPIRAbuLIFAbuPNGFAVD-amide] (Ac-TPIR[Abu]LIF[Abu]PNGFAVD-NH2)
- inhibition of elastase activity [1]: dose-dependent inhibition of elastase activity
- specific effectivity (elastase inhibition), factor less than the native molecule ([1]; relative to native molecule): ~5,000

Molecule: peak 7: single molecule isoform from Limnatis nilotica, 5494.4 D, partial sequence in b92, elastase inhibitor (DDDCGGQVCSKGQLCHDGHCECTPIRCLIYCPNFVDE)
- specific (elastase) activity [1]: 1.2 IU/mg
- inhibition of elastase activity [1]: showed inhibition of elastase

Molecule: CC[C@H](NC(=O)[C@H](CCCNC(=N)N)NC(=O)[C@@H](NC(=O)[C@@H]1CCCN1C(=O)[C@@H](NC(C)=O)[C@@H](C)O)[C@@H](C)CC)C(=O)N[C@@H](CCCNC(=N)N)C(=O)N[C@H](C(=O)N[C@@H](Cc1ccc(O)cc1)C(=O)N[C@@H](CC)C(=O)N1CCC[C@H]1C(=O)N[C@@H](CCCCN)C(=O)NCC(=O)N[C@@H](Cc1ccccc1)C(=O)N[C@@H](CCC(=O)O)C(=O)N[C@H](C(=O)N[C@@H](CC(=O)O)C(N)=O)C(C)C)[C@@H](C)CC [Synthetic peptide II, N-Acetyl-TPIRAbuRIYAbuPKGFEVD-amide] (Ac-TPIR[Abu]RIY[Abu]PKGFEVD-NH2)
- trypsin inhibition [3]: dose-dependent inhibition of trypsin activity
- specific effectivity (trypsin inhibition), factor less than the native molecule ([3]; relative to native molecule): ~1,500

B1: Synthetic linear peptide N-Acetyl-TPIRAbuRIYAbuPKGFEVD-amide (II) (peptide)
peptide: Ac-TPIR[Abu]RIY[Abu]PKGFEVD-NH2
SMILES: CC[C@H](NC(=O)[C@H](CCCNC(=N)N)NC(=O)[C@@H](NC(=O)[C@@H]1CCCN1C(=O)[C@@H](NC(C)=O)[C@@H](C)O)[C@@H](C)CC)C(=O)N[C@@H](CCCNC(=N)N)C(=O)N[C@H](C(=O)N[C@@H](Cc1ccc(O)cc1)C(=O)N[C@@H](CC)C(=O)N1CCC[C@H]1C(=O)N[C@@H](CCCCN)C(=O)NCC(=O)N[C@@H](Cc1ccccc1)C(=O)N[C@@H](CCC(=O)O)C(=O)N[C@H](C(=O)N[C@@H](CC(=O)O)C(N)=O)C(C)C)[C@@H](C)CC
- specific effectivity against the native molecule [4]: 1500 factor less

Molecule: DDDCGGQVCSKGQLCHDGHCECTPIRCLIYCPNFVDE [FAHSIN E 1]
- specific (elastase) activity, inhibition of SAAAP hydrolysis [5]: 1.2 IU/mg

B2: peak 5: 1:1 mixture of 2 peptides, 5377.2 and 5435.5 Dalton, SEQ ID NO:5 or 6, trypsin inhibitor (protein)
chain 1: DDDCGGQVCSKGQLCVDGQCKCTPIRCRIYCPKGFEVDENGCELPCTCKQ
chain 2: B2 chain 1 with D2G, D3N
- inhibition of plasmin [6]: strongly active
- trypsin inhibition ([3]; listed as Fahsin T 1-2): strongly active
- trypsin inhibition ([3]; listed as Fraction 5): strong trypsin inhibition
- trypsin inhibitory activity compared with the fractions corresponding to peaks 7, 8 and/or 9 ([3]; ratio to peaks 7, 8 and/or 9): at least twenty times higher
- specific (elastase) activity [1]: less than 0,06 IU/mg
- inhibition of elastase activity [1]: did not show anti-elastase activity

B3: Synthetic linear peptide N-Acetyl-TPIRAbuLIFAbuPNGFAVD-amide (I) (peptide)
peptide: Ac-TPIR[Abu]LIF[Abu]PNGFAVD-NH2
SMILES: CC[C@H](NC(=O)[C@H](CCCNC(=N)N)NC(=O)[C@@H](NC(=O)[C@@H]1CCCN1C(=O)[C@@H](NC(C)=O)[C@@H](C)O)[C@@H](C)CC)C(=O)N[C@@H](CC(C)C)C(=O)N[C@H](C(=O)N[C@@H](Cc1ccccc1)C(=O)N[C@@H](CC)C(=O)N1CCC[C@H]1C(=O)N[C@@H](CC(N)=O)C(=O)NCC(=O)N[C@@H](Cc1ccccc1)C(=O)N[C@@H](C)C(=O)N[C@H](C(=O)N[C@@H](CC(=O)O)C(N)=O)C(C)C)[C@@H](C)CC
- specific effectivity against the native molecule [7]: 5000 factor less

B4: peak 9: isoform found to be a mixture of two molecules, 5385.5 and 5454.1 D, partial sequence in b93 (protein)
chain 1: DDDCGGKVCSKGQLCVDGHCECTPIRCLIYCPNGFAVENGC
chain 2: B4 chain 1 with D2G, D3N, K7Q, H19Q, E21K
- specific (elastase) activity [1]: 0.95 IU/mg
- inhibition of elastase activity [1]: showed inhibition of elastase
